Measured values as given in patent US11982671B2, “Identification of a T cell epitope of Prevotella copri that induces T cell responses in patients with rheumatoid arthritis” (priority 2016, dated 2024).

Tested on: serum IgG and IgA antibodies
Test: ELISA for serum IgG and IgA antibodies to the P. copri protein (Pc-p27)
Format: binding, human
Protocol: ELISA for serum IgG and IgA antibodies to the P. copri protein (Pc-p27). ELISA plates were coated with 0.25 μg/ml of the P. copri protein Pc-p27 (GenScript USA Inc, Piscataway, N.J.) overnight at 4° C. Subsequent incubations and washes were performed at room temperature. After washing with phosphate buffered saline with 0.05% Tween-20 (PBST), the plates were incubated with blocking buffer (5% nonfat dry milk in PBST) for one hour. Afterwards, 100 μl of each patient's serum sample (diluted 200-fold) was added in duplicate wells for 1.5 hours, followed by horseradish-peroxidase (HRP)-conjugated goat anti-human IgG (sc-2453, Santa Cruz Biotech) or HRP-conjugated goat anti-human IgA (Bio-Rad, Hercules, Calif.) and then TMB substrate (BD, San Diego, Calif.). For inter-plate standardization, 2 control samples were included on each plate.

B1: Pc-p27: full length 27-kD protein of P. copri, recombinant (GenScript) (protein, listed as Prevotella copri)
chain: MKRIILILTVLLAMLGQVAYAQKTCVIASAENHVPIREALIHTNNNHWARTDYRGYWTMRYQFDSATVSKPGFMKATIRYKELPDTLFLLPDAKQLGEVTVWGKNQEGIKNMEEDIQEKINSLPTSSTGIGFDAFGWMDKQGKRDKKHLQQAKKVFEKMEHKDPVVAAYEKATGKKYELTNPYDVSAFKKDPPSEMATEEKKATSDAESKSKKKENPEKYAQE
patients with positive IgG antibody responses (49 CRA patients): 20% | patients with IgG antibody responses >3 SD above HC (78 NORA patients, serum diluted 200-fold): 13% | patients with IgG or IgA antibody responses (127 RA patients): 24% | patients with IgA antibody responses (both the NORA and CRA groups): About 10%
